# ± gives the uncertainty stated by the source.
# Experiment: self-splicing fitness, log relative to wild type (ln ratio); higher = more splicing; Tetrahymena group I intron in knt gene, E. coli kanamycin selection, DiMSum; sequences stand for … in CUCUCU…GGAGGGAAAAGUUAUCAGGCAUGCACCUGGUAGCUAGUCUUUAAACCAAUAGAUUGCAUCGGUUUAAAAGGCAAGACCGUCAAAUUGCGGGAAAGGGGUCAACAGCCGUUCAGUACCAAGUCUCAGGGGAAACUUUGAGAUGGCCUUGCAAAGGGUAUGGUAAUAAGCUGACGGACAUGGUCCUAACCACGCAGCCAAGUCCUAAGUCAACAGAUCUUCUGUUGAUAUGGAUGCAGUUCACAGACUAAAUGUCGGUCGGGGAAGAUGUAUUCUUCUCAUAAGAUAUAGUCGGACCUCUCCUUAAUGGGAGCUAGCGGAUGAAGUGAUGCAACACUGGAGCCGCUGGGAACUAAUUUGUAUGCGAAAGUAUAUUGAUUAGUUUUGGAGUACUCGUGGUCG
# How it was run: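 Six replicate transformations of E. coli BL21(DE3) with a pET-22b(+) library were grown overnight at 37°C or 30°C. The library randomised all eight P1ex-region intron nucleotides, the intron lying in the knt kanamycin-resistance gene, and plates were LB agar with or without 25 μg/mL kanamycin plus 100 μg/mL carbenicillin, 50 μM IPTG and 0.2% rhamnose. Pooled colonies were amplicon-sequenced on an Illumina HiSeq 2500, and fitness is the DiMSum error-weighted combination of wild-type-normalised replicate fold changes, kanamycin versus none.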
Sequence,self-splicing fitness (ln) (30 °C),self-splicing fitness (ln) (37 °C)
AACUAGCAAUAUUACGUCUC,-3.37 ± 0.16,-2.54 ± 0.15
GGCAAGCAAUAUUACGGCGA,-0.134 ± 0.082,0.235 ± 0.11
GAGCAGCAAUAUUACGCUGC,-3.72 ± 0.18,-3.06 ± 0.27
AUGCAGCAAUAUUACGUGUC,-3.68 ± 0.18,-3.18 ± 0.2
UAACAGCAAUAUUACGAAAG,-1.44 ± 0.14,-1.76 ± 0.21
CAUAAGCAAUAUUACGGGUA,-3.36 ± 0.21,-2.64 ± 0.17
CUUAAGCAAUAUUACGGCUA,-2.73 ± 0.45,
CGCAAGCAAUAUUACGCUGG,-3.06 ± 0.31,-2.09 ± 0.25
AACUAGCAAUAUUACGUGAC,-2.92 ± 0.12,-1.38 ± 0.12
GAGUAGCAAUAUUACGCAAG,-3.43 ± 0.26,-0.127 ± 0.1
GACAAGCAAUAUUACGGGAA,-2.12 ± 0.097,-1.36 ± 0.12
UUCCAGCAAUAUUACGUUUG,-4.67 ± 0.46,-2.83 ± 0.24
AAGUAGCAAUAUUACGAUGU,-1.23 ± 0.1,-0.476 ± 0.12
AUGUAGCAAUAUUACGGCAA,0.118 ± 0.11,-0.419 ± 0.12
CUAAAGCAAUAUUACGCGGG,-2.27 ± 0.13,-2.03 ± 0.15
UGCCAGCAAUAUUACGUGCG,-1.34 ± 0.077,-1.13 ± 0.091
AUGGAGCAAUAUUACGUCAC,-3.23 ± 0.37,
CUCAAGCAAUAUUACGGCGC,,-0.598 ± 0.19
GGAUAGCAAUAUUACGCAGU,-2.7 ± 0.18,-1 ± 0.12
UUCUAGCAAUAUUACGUUCG,-2.17 ± 0.14,-1.29 ± 0.16
GUCCAGCAAUAUUACGAGUG,-2.52 ± 0.11,-1.59 ± 0.1
GGUGAGCAAUAUUACGCGUG,-1.22 ± 0.16,-1.52 ± 0.21
ACUUAGCAAUAUUACGCGUG,-1.89 ± 0.1,-1.13 ± 0.11
ACUCAGCAAUAUUACGUGGU,-3.75 ± 0.12,-2.75 ± 0.12
CUUAAGCAAUAUUACGUUUA,-2.81 ± 0.18,-2.6 ± 0.24

Sequence,self-splicing fitness (ln) (30 °C),self-splicing fitness (ln) (37 °C)
GUUCAGCAAUAUUACGCGAG,-0.511 ± 0.11,-0.381 ± 0.11
AUCCAGCAAUAUUACGACGG,-4 ± 0.3,-1.8 ± 0.19
UAAUAGCAAUAUUACGAAAA,-2.83 ± 0.26,-1.59 ± 0.15
CCGUAGCAAUAUUACGUCUU,-4.01 ± 0.34,-2.96 ± 0.23
GAAAAGCAAUAUUACGGUCG,-0.446 ± 0.065,-0.0366 ± 0.1
UUUCAGCAAUAUUACGAACC,,-1.08 ± 0.38
CGAAAGCAAUAUUACGGCUU,-4.2 ± 0.22,-2.79 ± 0.3
GAUGAGCAAUAUUACGUAGC,-3.69 ± 0.34,-1.74 ± 0.25
GAGUAGCAAUAUUACGGGAG,-2.18 ± 0.19,-3.1 ± 0.24
GGACAGCAAUAUUACGAGGU,-3.35 ± 0.21,-2.12 ± 0.14
GUCAAGCAAUAUUACGAGUC,-3.75 ± 0.2,-2.87 ± 0.26
CCAUAGCAAUAUUACGUCAG,-1.74 ± 0.13,-1.61 ± 0.15
AAGGAGCAAUAUUACGUGAG,-3.51 ± 0.25,-2.5 ± 0.21
GGCAAGCAAUAUUACGCCGG,-2.81 ± 0.3,-3.19 ± 0.22
UUAUAGCAAUAUUACGAAAG,-3.47 ± 0.37,-2.69 ± 0.38
GGGCAGCAAUAUUACGGAGC,-2.15 ± 0.19,-1.12 ± 0.2
AGACAGCAAUAUUACGUCCC,-2.45 ± 0.18,-0.529 ± 0.17
CCUUAGCAAUAUUACGAUGG,-2.24 ± 0.13,-2.26 ± 0.16
ACGCAGCAAUAUUACGACCU,0.0699 ± 0.061,0.401 ± 0.073
AGUUAGCAAUAUUACGACGU,0.261 ± 0.07,0.647 ± 0.083
UCUGAGCAAUAUUACGUAAA,-3.29 ± 0.19,-1.69 ± 0.18
CCUAAGCAAUAUUACGGGUA,-2.36 ± 0.27,-1.67 ± 0.25
AAUCAGCAAUAUUACGCUGC,-3.58 ± 0.26,-2.36 ± 0.19
GUACAGCAAUAUUACGUAAU,-1.66 ± 0.087,-0.807 ± 0.11

# Reference: the supplement of paper PMC7877785
